# Results taken from patent US20220062371.
# Legend:
# [1] = test system: Compound 28, Ac-Cys-Mal-PEG4-Phe-Lys-Lys(Mal-DM1)-Phe-Phe-Lys-OH
# [2] = test system: Compound 13, Ac-Cys-Mal-PEG4-Phe-Lys-Lys(AF)-Phe-OH
# [3] = test system: Compound 17, Arg-PEG4-Phe-Arg-[Glu(Sar-OCPT)-Phe]2-OH
# [4] = test system: Compound 10, Arg-PEG4-Phe-Arg-Dab(CO-CPT)-Phe-OH
# [5] = test system: Compound 19, AF-Cit-Lys(PEG4-Mal-Cys-Ac)-Phe-OH
# [6] = test system: Compound 5, DM1-Mal-Phe-Lys-Lys(PEG4-Mal-Cys-Ac)-Phe-OH
# [7] = test system: Compound 11, Arg-PEG4-Phe-Arg-Ser(CO-CPT)-Phe-OH
# [8] = test system: Compound 22, DM1-Mcc-Phe-Cit-Lys(PEG5-Ma-Cys-Ac)-Tyr-OH
# [9] = test system: Compound 30, Ac-Cys-Mal-PEG4-Phe-Arg-Lys(Mal-DM1)-Arg-Lys(AF)-Phe-OH
# [10] = test system: Compound 9, Arg-PEG4-Phe-Arg-Dap(CO-CPT)-Phe-OH
# [11] = test system: Compound 16, Arg-PEG4-Phe-Arg-Glu(Sar-OCPT)-Arg-Phe-Arg-OH
# [12] = test system: Compound 6, DM1-Mal-Phe-Cit-Lys(PEG4-Mal-Cys-Ac)-Phe-OH
# [13] = test system: Compound 3, AF-Arg-Phe-Lys(PEG4-Mal-Cys-Ac)-OH
# [14] = test system: Compound 12, Ac-Cys-Mal-PEG4-Phe-Lys-Lys(Mal-DM1)-Phe-OH
# [15] = test system: Compound 15, Arg-PEG4-Phe-Arg-Glu(Sar-OCPT)-Arg-OH
# [16] = test system: Compound 18, Arg-PEG4-[Phe-Arg-Glu(Sar-OCPT)-Arg]2-OH
# [17] = test system: Compound 23, DM1-Mcc-Cit-Lys(PEG5-Ma-Cys-Ac)-Tyr-OH
# [18] = test system: Compound 29, Ac-Cys-Mal-PEG4-[Phe-Lys-Lys(Mal-DM1)-Phe]2-OH
# [19] = test system: Compound 27, Ac-Cys-Ma-PEG5-Phe-Cit-Lys(Mcc-DM1)-Tyr-OH
# [20] = test system: Compound 1, AF-Arg-Lys(PEG4-Mal-Cys-Ac)-Phe-OH
# [21] = test system: Compound 32, Ac-Cys-Mal-[PEG5-Lys(AF-Cit-Lys(Y)-Phe-OH)]2-Gly-NH2
# [22] = test system: Compound 31, AF-Cit-Lys(Mal-DM1)-Phe-Lys(PEG4-Mal-Cys-Ac)-Phe-OH
# [23] = test system: Compound 7, DM1-Mal-Phe-Cit-Phe-Lys(PEG4-Mal-Cys-Ac)-OH
# [24] = test system: Compound 8, Arg-PEG4-Phe-Arg-Glu(Sar-OCPT)-Phe-OH
substance,measurement,setting,value
Recombinant human Cathepsin B,"T1/2 Compound (min), Cat B-induced cleavage",[1],0.3 min
same,"T1/2 Compound (min), Cat B-induced cleavage",[2],1.6 min
same,Cat B-induced cleavage (in vitro enzymatic cleavage assay),[3],Cat B-induced cleavage of compound 17 rapidly released C-terminal dipeptide-drug unit Glu(Sar-OCPT)-Phe-OH and compound 8 as an intermediate
same,"T1/2 Compound (min), Cat B-induced cleavage",[4],0.9 min
same,"T1/2 Compound (min), Cat B-induced cleavage",[5],1.1 min
same,"T1/2 Compound (min), Cat B-induced cleavage",[6],0.6 min
same,"T1/2 Compound (min), Cat B-induced cleavage",[7],2.2 min
same,"T1/2 Compound (min), Cat B-induced cleavage",[8],0.06 min
same,"T1/2 Compound (min), Cat B-induced cleavage",[9],1.1 min
same,"T1/2 Compound (min), Cat B-induced cleavage",[10],4.5 min
same,Cat B-induced cleavage (in vitro enzymatic cleavage assay),[11],"compound 16 as a first intermediate, which is in turn rapidly cleaved via exo-Cat B mechanism to release compound 15 as a second intermediate"
same,"T1/2 Compound (min), Cat B-induced cleavage",[12],0.3 min
same,"T1/2 Compound (min), Cat B-induced cleavage",[13],1.4 min
same,"T1/2 Compound (min), Cat B-induced cleavage",[14],1.5 min
same,Cat B-induced cleavage (in vitro enzymatic cleavage assay),[15],Cat B-induced cleavage of compound 15 releases a second C-terminal dipeptide-drug unit H-Glu(Sar-OCPT)-Arg-OH
same,Cat B-induced cleavage (in vitro enzymatic cleavage assay),[16],Cat B-induced cleavage of compound 18 rapidly released the C-terminal dipeptide-drug unit H-Glu(Sar-OCPT)-Arg-OH and compound 16 as a first intermediate
same,"T1/2 Compound (min), Cat B-induced cleavage",[17],0.0004 min
same,"T1/2 Compound (min), Cat B-induced cleavage",[18],2.4 min
same,"T1/2 Compound (min), Cat B-induced cleavage",[19],0.06 min
same,"T1/2 Compound (min), Cat B-induced cleavage",[20],1.5 min
same,"T1/2 Compound (min), Cat B-induced cleavage",[21],0.98 min
same,"T1/2 Compound (min), Cat B-induced cleavage",[22],1.08 min
same,"T1/2 Compound (min), Cat B-induced cleavage",[23],1.2 min
same,Cat B-induced cleavage (in vitro enzymatic cleavage assay),[24],compound 8 was rapidly cleaved to release the C-terminal dipeptide-drug unit H-Glu(Sar-OCPT)-Phe-OH
same,"T1/2 Compound (min), Cat B-induced cleavage",[24],2.2 min
